Reference: patent US20090099074A1, “MODULATING FOOD INTAKE” (CONJUCHEM BIOTECHNOLOGIES INC., priority 2007, published 2009)
pIC50: −log10 of the molar value.

Molecular target: NPY Y1 receptor
Assay: in vitro NPY Y1 receptor binding assay; tracer and cells not stated

NPY Y1 receptor, sequence (P25929 whole entry): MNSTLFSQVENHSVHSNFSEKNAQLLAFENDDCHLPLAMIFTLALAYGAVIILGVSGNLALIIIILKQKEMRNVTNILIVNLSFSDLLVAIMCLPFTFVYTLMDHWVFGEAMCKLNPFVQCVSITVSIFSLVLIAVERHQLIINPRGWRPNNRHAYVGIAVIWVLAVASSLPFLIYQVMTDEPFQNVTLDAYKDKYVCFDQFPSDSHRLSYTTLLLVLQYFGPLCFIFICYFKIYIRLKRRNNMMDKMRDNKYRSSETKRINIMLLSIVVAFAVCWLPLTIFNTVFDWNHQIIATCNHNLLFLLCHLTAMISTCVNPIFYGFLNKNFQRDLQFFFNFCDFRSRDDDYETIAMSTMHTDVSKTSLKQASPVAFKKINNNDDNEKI

pIC50: 8.96
Substance: NPY(human, rat) control (from UniProt P01303 29-64) (peptide)
